Values belong to the molecule of their own block, whether it stands above or below them.
What was measured:
Assay type in all cases: biochemical
[1] = target: T1, Xenopus homologue of SAPK2a (Xenopus laevis, UniProt P47812); assay: Substrate specificity: rate of phosphorylation by SAPK2a (Table 1); conditions: substrate 1 μm; SAPK 0.15 U/ml; means ± SEM of six determinations
T1 construct: made in house; host or cells: E. coli
Method: (§1) Experiments were carried out with the Xenopus homologue of SAPK2a, human SAPK2b and human SAPK4. The SAPKs were activated in vitro (FIG. 7) and phosphorylation of each protein was studied at a SAPK concentration of 0.15 U/ml. The results are presented as means±SEM of six determinations (two separate experiments). The data for rat SAPK3 are taken from Example 4 and Cuenda et al (1997).

human SAPK2b = target: T2, human SAPK2b (Homo sapiens, UniProt Q15759); assay: Substrate specificity: rate of phosphorylation by SAPK2b (Table 1); conditions: substrate 1 μm; SAPK 0.15 U/ml; means ± SEM of six determinations
T2 construct: a number of SAPK2b clones, some of which were full-length; made in house; host or cells: E. coli BL21(DE3)
Method: as §1

rat SAPK3 = target: T3, rat SAPK3 (Rattus norvegicus, UniProt Q63538); assay: Substrate specificity: rate of phosphorylation by SAPK3 (Tables 1 and 2); conditions: for Rate of phosphorylation relative to MBP, SAPK3: substrate 1 μM, SAPK 0.1 U/ml; for Rates of phosphorylation relative to MBP, SAPK3: substrate 1 μm, rat SAPK3 data taken from Example 4 and Cuenda et al (1997)
T3 construct: made in house; host or cells: E. coli BL21 (DE3)
T3 sequence (Q63538 1-367): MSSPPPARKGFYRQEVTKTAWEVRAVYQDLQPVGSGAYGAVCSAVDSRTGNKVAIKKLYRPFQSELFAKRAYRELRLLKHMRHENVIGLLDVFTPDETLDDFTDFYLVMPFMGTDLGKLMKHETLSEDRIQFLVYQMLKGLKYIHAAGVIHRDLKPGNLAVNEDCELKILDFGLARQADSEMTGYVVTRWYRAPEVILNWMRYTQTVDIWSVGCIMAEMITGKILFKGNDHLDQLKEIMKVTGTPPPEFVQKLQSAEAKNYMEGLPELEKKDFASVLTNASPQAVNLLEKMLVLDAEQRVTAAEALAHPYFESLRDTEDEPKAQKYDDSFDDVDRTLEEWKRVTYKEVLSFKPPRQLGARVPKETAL
Method: as §1
(§2) Protein kinase assays. SAPK3 was assayed routinely by the phosphorylation of MBP. […] After 20 min at 30° C.
(§3) Table 2. Comparison of substrate specificities of SAPK2 and SAPK3. SAPK2 and SAPK3 were activated in vitro (FIG. 15) and phosphorylation of each protein studied at a SAPK concentration of 0.1 U/ml.

[2] = target: T4, SAPK2 (Xenopus homologue) (Xenopus laevis, UniProt P47812); assay: Substrate specificity: rate of phosphorylation by SAPK2 (Table 2); conditions: substrate 1 μM; SAPK 0.1 U/ml
T4 construct: made in house; host or cells: E. coli
Method: as §2, §3

SAPK4 = target: T5, SAPK4 (Homo sapiens, UniProt O15264); assay: Substrate specificity: rate of phosphorylation by SAPK4 (Table 1); design: made in house; host or cells: E. coli BL21(DE3); conditions: substrate 1 μm; SAPK 0.15 U/ml; means ± SEM of six determinations
T5 sequence (O15264 1-365): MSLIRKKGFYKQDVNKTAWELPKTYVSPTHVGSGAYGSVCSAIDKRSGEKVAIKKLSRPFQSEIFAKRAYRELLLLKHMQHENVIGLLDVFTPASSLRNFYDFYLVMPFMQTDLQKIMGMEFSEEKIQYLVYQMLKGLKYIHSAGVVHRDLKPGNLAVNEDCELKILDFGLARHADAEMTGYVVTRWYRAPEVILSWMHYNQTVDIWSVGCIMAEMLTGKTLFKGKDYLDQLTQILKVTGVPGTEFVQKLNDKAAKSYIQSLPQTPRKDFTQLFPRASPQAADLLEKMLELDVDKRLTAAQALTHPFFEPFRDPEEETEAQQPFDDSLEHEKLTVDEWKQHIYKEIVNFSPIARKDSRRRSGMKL
Method: as §1
SAPK4 is assayed routinely by the phosphorylation of MBP. […] After washing and drying the papers (Alessi et al, 1995 Meth. Enzymol. 255, 279-290) ^32P radioactivity incorporated into MBP is measured.

T4 sequence (P47812 whole entry): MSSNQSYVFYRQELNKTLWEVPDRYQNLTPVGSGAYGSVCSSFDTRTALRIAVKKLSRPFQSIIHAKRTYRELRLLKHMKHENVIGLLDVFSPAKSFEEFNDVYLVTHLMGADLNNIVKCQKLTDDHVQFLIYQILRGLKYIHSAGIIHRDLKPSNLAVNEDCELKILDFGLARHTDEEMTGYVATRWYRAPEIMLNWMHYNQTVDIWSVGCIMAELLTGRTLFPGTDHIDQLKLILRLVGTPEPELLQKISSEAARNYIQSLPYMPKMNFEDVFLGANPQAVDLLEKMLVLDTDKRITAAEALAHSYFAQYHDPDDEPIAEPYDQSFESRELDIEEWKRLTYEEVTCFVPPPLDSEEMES
T1 sequence (P47812 whole entry): as above
T2 sequence (Q15759 whole entry): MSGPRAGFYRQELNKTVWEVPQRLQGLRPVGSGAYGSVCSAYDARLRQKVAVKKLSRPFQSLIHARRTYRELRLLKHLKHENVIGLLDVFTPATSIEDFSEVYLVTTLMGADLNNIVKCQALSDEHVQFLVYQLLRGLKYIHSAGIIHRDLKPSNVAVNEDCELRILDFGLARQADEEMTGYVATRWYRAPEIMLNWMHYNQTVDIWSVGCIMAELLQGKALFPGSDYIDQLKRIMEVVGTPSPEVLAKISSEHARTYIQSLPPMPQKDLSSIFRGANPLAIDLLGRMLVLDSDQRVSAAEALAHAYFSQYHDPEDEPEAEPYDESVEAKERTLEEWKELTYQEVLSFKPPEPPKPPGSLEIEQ

Rates of phosphorylation relative to MBP, SAPK2a [1]: 25 ± 1%
Rates of phosphorylation relative to MBP, SAPK2b (human SAPK2b): 27 ± 5%
Rate of phosphorylation relative to MBP, SAPK3 (rat SAPK3): 108 ± 15
Rates of phosphorylation relative to MBP, SAPK3 (rat SAPK3): 108 ± 15%
Rate of phosphorylation relative to MBP, SAPK2 [2]: 55 ± 13
Rates of phosphorylation relative to MBP, SAPK4 (SAPK4): 62 ± 5%
B1: SAP-1: transcription factor activation domain linked to GST, kinase substrate (protein)
chain: TPSPPLSSHPDIDTDIDSVASQPMELPENLSLEPKDQDSVLLEKDKVNNSSRSKKPKGLELAPTLVITSSDPSPLGILSPSLPTASLTPAFFSQTPIILTPSPLLSSIHFWSTLSPVAPLSPARLQGANTLFQFPSVLNSHGPFTLSGLDGPSTPGPFSPDLQKT
modifications: left off: a dimerising Fc or GST

Rates of phosphorylation relative to MBP, SAPK2a [1]: 4 ± 1%
Rates of phosphorylation relative to MBP, SAPK2b (human SAPK2b): 7 ± 2%
Rate of phosphorylation relative to MBP, SAPK3 (rat SAPK3): 2 ± 1
Rates of phosphorylation relative to MBP, SAPK3 (rat SAPK3): 2 ± 1%
Rate of phosphorylation relative to MBP, SAPK2 [2]: 2 ± 1
Rates of phosphorylation relative to MBP, SAPK4 (SAPK4): 6 ± 2%
B2: c-Jun: transcription factor activation domain linked to GST, kinase substrate (protein)
chain: MTAKMETTFYDDALNASFLPSESGPYGYSNPKILKQSMTLNLADPVGSLKPHLRAKNSDLLTSPDVGLLKLASPELERLIIQSSNGHITTTPTPTQFLCPKNVTDEQEGFAEGFVRALAELHSQNTLPSVTSAAQPVNGAGMVAPAVASVAGGSGSGGFSASLHSEPPVYANLSNFNPGALSSGGGAPSYGAAG
modifications: left off: a dimerising Fc or GST

Rates of phosphorylation relative to MBP, SAPK2a [1]: 40 ± 2%
Rates of phosphorylation relative to MBP, SAPK2b (human SAPK2b): 62 ± 2%
Rate of phosphorylation relative to MBP, SAPK3 (rat SAPK3): 107 ± 20
Rates of phosphorylation relative to MBP, SAPK3 (rat SAPK3): 107 ± 20%
Rate of phosphorylation relative to MBP, SAPK2 [2]: 86 ± 20
Rates of phosphorylation relative to MBP, SAPK4 (SAPK4): 130 ± 2%
B3: ATF2: transcription factor activation domain linked to GST, kinase substrate (protein)
chain: MSDDKPFLCTAPGCGQRFTNEDHLAVHKHKHEMTLKFGPARNDSVIVADQTPTPTRFLKNCEEVGLFNELASPFENEF
modifications: left off: a dimerising Fc or GST

Rates of phosphorylation relative to MBP, SAPK2a [1]: 87 ± 10%
Rates of phosphorylation relative to MBP, SAPK2b (human SAPK2b): 66 ± 6%
Rates of phosphorylation relative to MBP, SAPK3 (rat SAPK3): 20 ± 6%
Rates of phosphorylation relative to MBP, SAPK4 (SAPK4): 18 ± 2%
B4: MAPKAP-K3: MAP kinase-activated protein kinase-3, GST fusion used as kinase substrate (protein)
chain: MDGETAEEQGGPVPPPVAPGGPGLGGAPGGRREPKKYAVTDDYQLSKQVLGLGVNGKVLECFHRRTGQKCALKLLYDSPKARQEVDHHWQASGGPHIVCILDVYENMHHGKRCLLIIMECMEGGELFSRIQERGDQAFTEREAAEIMRDIGTAIQFLHSHNIAHRDVKPENLLYTSKEKDAVLKLTDFGFAKETTQNALQTPCYTPYYVAPEVLGPEKYDKSCDMWSLGVIMYILLCGFPPFYSNTGQAISPGMKRRIRLGQYGFPNPEWSEVSEDAKQLIRLLLKTDPTERLTITQFMNHPWINQSMVVPQTPLHTARVLQEDKDHWDEVKEEMTSALATMRVDYDQVKIKDLKTSNNRLLNKRRKKQAGSSSASQGCNNQ
modifications: left off: a dimerising Fc or GST

Reference: patent US6617117B1, “MAP kinases: polypeptides, polynucleotides and uses thereof” (Medical Research Council, priority 1996, dated 2003)
